Among the data in doi:10.1101/2021.09.17.460839 are Kd values, retold here.

Changes are numbered by the printed parent chain.

Data set [1] addresses T1, Rv0792c G80D G80D (Mycobacterium tuberculosis) (UniProt O86331).
T1 sequence: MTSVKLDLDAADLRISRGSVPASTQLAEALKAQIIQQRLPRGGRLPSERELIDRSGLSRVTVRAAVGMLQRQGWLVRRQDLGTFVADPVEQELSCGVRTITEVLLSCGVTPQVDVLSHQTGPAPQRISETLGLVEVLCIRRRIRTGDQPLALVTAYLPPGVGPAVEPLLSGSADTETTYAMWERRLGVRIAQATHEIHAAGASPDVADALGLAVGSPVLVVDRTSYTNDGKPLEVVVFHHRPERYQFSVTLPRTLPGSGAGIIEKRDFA
As to the kind of experiment: ALISA.

Data set [2] concerns the target T2, Rv0792c R49A R49A (Mycobacterium tuberculosis) (UniProt O86331).
T2 sequence: T1 sequence with R49A, D80G
Kind of data set: ALISA.

What is called Kd is the concentration at which binding is half-saturated. Take “TCTAGTCATTCGTCATAATCCCATCTGTTTCTTCCTCCTTCCGT [Rv0792c_2 aptamer (printed Rv0729c_2)]”: the Kd in data set [1] amounted to 120 nM; in data set [2], 74 nM.
